US20180051085A1 (published 2018)

B1: chimeric anti-PD-1 antibody 2G9 (IMMU-cPD-1) (antibody, V domains shown)
VH: VKLQESGGGLVKPGGSLKLSCAASGFAFSSNDMSWVRQTPEKRLEWVATISGGGINTYYPDSVKGRFTISRDNARNTLDLQMSSLRSEDTALYYCARRSNYAWFAYWGQGTPVTVSA
VL: not shown
B2: humanized anti-PD-1 antibody hPD-1-v5 (antibody, V domains shown)
VH: QVQLVESGGGLVKPGGSLRLSCAASGFAFSSNDMSWVRQAPGKGLEWVATISGGGINTYYPDSVKGRFTISRDNAKNTLYLQMNSLRAEDTAVYYCARRSNYAWFAYWGQGTPVTVSA
VL: DIQLTQSPASLAVSLGQRATISCRASESVDTYGISFMNWFQQKPGQPPKLLISPNQGSGVPARFSGSGSGTDFTLTINSLEAEDTAVYFCQQSKEVPWTFGGGTKLEIK
notes: also called version 5 (V5) antibody

What was measured:
[1] = biological target: T1, recombinant human PD-1-His (human, UniProt Q15116 25-167, limits assumed); assay: binding to recombinant human PD-1-His (FIG. 8)
T1 construct: also called recombinant PD-1-His; not shown: His tag
T1 sequence (Q15116 25-167 limits assumed): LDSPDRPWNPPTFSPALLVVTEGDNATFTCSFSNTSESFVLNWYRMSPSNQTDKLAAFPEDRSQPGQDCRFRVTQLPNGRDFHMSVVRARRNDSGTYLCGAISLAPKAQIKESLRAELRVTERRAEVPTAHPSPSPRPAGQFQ

[2] = biological target: T2, human PD-1 expressed on cells (human, UniProt Q15116 25-288); assay: binding to 2D1 cells transfected with human PD-1 (FIG. 9)
T2 construct: whole, on cells; also called SpESFX-2D1
T2 sequence (Q15116 25-288): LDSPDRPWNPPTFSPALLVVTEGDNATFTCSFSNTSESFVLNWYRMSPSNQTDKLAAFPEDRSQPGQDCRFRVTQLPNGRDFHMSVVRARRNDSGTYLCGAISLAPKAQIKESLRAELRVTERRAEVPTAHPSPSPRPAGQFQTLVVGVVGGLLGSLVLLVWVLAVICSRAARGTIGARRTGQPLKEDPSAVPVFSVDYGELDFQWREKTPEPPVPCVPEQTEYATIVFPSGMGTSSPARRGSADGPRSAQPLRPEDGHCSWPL

Binder	EC50 [1]	EC50 [2]
B1	0.043 nM	1.1 nM
B2	0.148 nM	3.8 nM
